The text below walks through data of patent US20220096653A1, “CONJUGATE COMPRISING LIGAND AND CEACAM5 ANTIBODY FAB FRAGMENT” (ASTELLAS PHARMA INC., priority 2019, published 2022).

Read-outs that look alike come from different tables or passages of the source.

Data set [1] in a line: Kidney accumulation evaluation test of Gd-labeled conjugates, normal mice (Example 4-1). The following applies: for Proportion of decrease (amount of Gd contained in the kidneys): based on control conjugate Ex-No. 47, about 24 hours; for % of dose/tissue (amount of Gd contained per kidney): tail vein, 0.02 mg protein per animal, about 24 hours, ICP-MS, mean of 3 cases.
Protocol: (§1) A Gd-labeled conjugate of the conjugate containing a peptide linker produced in one of the above Examples was administered from the tail vein of mice (BALB/c or BALB/c nu/nu) so that the protein mass was 0.02 mg (100 μL) per animal. After about 24 hours, the mice were sacrificed and the kidneys were removed, and the amount of Gd in the kidneys was measured using ICP-MS. The present test was carried out in 3 cases in each group, the mean value of the 3 cases was calculated, and the amount of Gd contained per kidney after administration was shown as a percentage (% of dose/tissue) of the total amount of Gd administered.
Based on the percentage of the control conjugate (% of dose/tissue), the proportion of decrease in the amount of Gd contained in the kidneys of each of the conjugates having a peptide linker was determined and shown in Table 28.
On the set-up of data set [2]: species or system mice (BALB/c or BALB/c nu/nu). The conditions noted are these: mouse, in vivo.
Protocol: as §1
For data set [3] the following is noted: mouse, in vivo.
Protocol: as §1
Details of data set [4]: species or system mice (BALB/c nu/nu). The following applies: mouse, in vivo.
Protocol: A Gd-labeled conjugate of the conjugate containing a peptide linker produced in one of the above Examples was administered from the tail vein of tumor-bearing mice so that the protein mass was 0.02 mg (100 μL) per animal. As the tumor-bearing mice used in the present Example, mice (BALB/c nu/nu) that were in a tumor-bearing state brought about by transplanting human colorectal cancer cell line LS174T cells (ATCC(registered trademark); CL-188) at 2.0 to 5.0×10^6 cells/mouse subcutaneously on the back before administration of the sample were used. 24 hours after administration of the sample, the mice were sacrificed, the kidneys and the tumor were removed, and the amounts of Gd in the kidneys and in the tumor were measured using ICP-MS. The present test was carried out in 3 cases in each group, and the mean value of the 3 cases was calculated. The amount of Gd contained per kidney after administration was shown as a percentage of the amount of Gd administered (% of dose/tissue), and the amount of Gd contained per g of tumor tissue was shown as a percentage of the total amount of Gd administered (% of dose/g).

B1: [Gd/4arm-DOTA-CH2-(1,4-Ph)-NH—C(═S)—NH—CH2-(1,3-Ph)-C(═O)-Met-Gly-Lys*-Z2(#S)]p-Fab^2 (conjugate)
heavy: EVQLVESGGGLVQPGGSLRLSCAASGFNIRDTYMHWVRQAPGKGLEWVARIDPANGNSRYVPKFQGRFTISADTSRNTAYLQMNSLRAEDTAVYYCAPFGYYVSDYAMAYWGQGTLVTVSSASTKGPSVFPLAPSSKSTSGGTAALGCLVKDYFPEPVTVSWNSGALTSGVHTFPAVLQSSGLYSLSSVVTVPSSSLGTQTYICNVNHKPSNTKVDKKVEPKSCD
light: DIQLTQSPSSLSASVGDRVTITCRAGESVDIFGVGFLHWYQQKPGKAPKLLIYRASNLESGIPSRFSGSGSRTDFTLTISSLQPEDFATYYCQQTNEDPYTFGQGTKVEIKRTVAAPSVFIFPPSDEQLKSGTASVVCLLNNFYPREAKVQWKVDNALQSGNSQESVTEQDSKDSTYSLSSTLTLSKADYEKHKVYACEVTHQGLSSPVTKSFNRGEC
As for B1, in data set [1], the “Proportion of decrease (amount of Gd contained in the kidneys)” value is recorded as 72.9% and the “% of dose/tissue (amount of Gd contained per kidney)” value is listed as 8.4 % of dose/tissue.

B2: Ex-No 10: (Y—S1—X)p-Fab^2: Y Gd/DOTA; S1 bond; X -Met-Ile-Lys*-Z2(#N)— (conjugate)
heavy: EVQLVESGGGLVQPGGSLRLSCAASGFNIRDTYMHWVRQAPGKGLEWVARIDPANGNSRYVPKFQGRFTISADTSRNTAYLQMNSLRAEDTAVYYCAPFGYYVSDYAMAYWGQGTLVTVSSASTKGPSVFPLAPSSKSTSGGTAALGCLVKDYFPEPVTVSWNSGALTSGVHTFPAVLQSSGLYSLSSVVTVPSSSLGTQTYICNVNHKPSNTKVDKKVEPKSCD
light: DIQLTQSPSSLSASVGDRVTITCRAGESVDIFGVGFLHWYQQKPGKAPKLLIYRASNLESGIPSRFSGSGSRTDFTLTISSLQPEDFATYYCQQTNEDPYTFGQGTKVEIKRTVAAPSVFIFPPSDEQLKSGTASVVCLLNNFYPREAKVQWKVDNALQSGNSQESVTEQDSKDSTYSLSSTLTLSKADYEKHKVYACEVTHQGLSSPVTKSFNRGEC
Take B2: in data set [2], the “Renal residual amount (normal mice) % of dose/tissue” value is 20.10 % of dose/tissue and the “Renal residual amount (normal mice) Proportion of decrease” value was found to be 31.46%.

B3: [Gd/DOTA-NH—CH2-(1,4-Ph)-NH—C(═O)-Met-Ile-NH—(CH2)2-(A-3)]p-Fab^2 (conjugate)
heavy: EVQLVESGGGLVQPGGSLRLSCAASGFNIRDTYMHWVRQAPGKGLEWVARIDPANGNSRYVPKFQGRFTISADTSRNTAYLQMNSLRAEDTAVYYCAPFGYYVSDYAMAYWGQGTLVTVSSASTKGPSVFPLAPSSKSTSGGTAALGCLVKDYFPEPVTVSWNSGALTSGVHTFPAVLQSSGLYSLSSVVTVPSSSLGTQTYICNVNHKPSNTKVDKKVEPKSCD
light: DIQLTQSPSSLSASVGDRVTITCRAGESVDIFGVGFLHWYQQKPGKAPKLLIYRASNLESGIPSRFSGSGSRTDFTLTISSLQPEDFATYYCQQTNEDPYTFGQGTKVEIKRTVAAPSVFIFPPSDEQLKSGTASVVCLLNNFYPREAKVQWKVDNALQSGNSQESVTEQDSKDSTYSLSSTLTLSKADYEKHKVYACEVTHQGLSSPVTKSFNRGEC
For the molecule B3, in data set [3], the “Renal residual amount (normal mice) % of dose/tissue” value was 1.43 % of dose/tissue and the “Renal residual amount (normal mice) Proportion of decrease” value turned out to be 95.38%.

B4: [Gd/DOTA-NH—CH2-(1,4-Ph)-NH—C(═O)-Met-Ile-NH—(CH2)2—Z1(#N)]p-Fab^2 (conjugate)
heavy: EVQLVESGGGLVQPGGSLRLSCAASGFNIRDTYMHWVRQAPGKGLEWVARIDPANGNSRYVPKFQGRFTISADTSRNTAYLQMNSLRAEDTAVYYCAPFGYYVSDYAMAYWGQGTLVTVSSASTKGPSVFPLAPSSKSTSGGTAALGCLVKDYFPEPVTVSWNSGALTSGVHTFPAVLQSSGLYSLSSVVTVPSSSLGTQTYICNVNHKPSNTKVDKKVEPKSCD
light: DIQLTQSPSSLSASVGDRVTITCRAGESVDIFGVGFLHWYQQKPGKAPKLLIYRASNLESGIPSRFSGSGSRTDFTLTISSLQPEDFATYYCQQTNEDPYTFGQGTKVEIKRTVAAPSVFIFPPSDEQLKSGTASVVCLLNNFYPREAKVQWKVDNALQSGNSQESVTEQDSKDSTYSLSSTLTLSKADYEKHKVYACEVTHQGLSSPVTKSFNRGEC
In the case of B4, in data set [2], the “Renal residual amount (normal mice) % of dose/tissue” value is 2.60 % of dose/tissue and the “Renal residual amount (normal mice) Proportion of decrease” value is 91.13%. Moreover, in data set [4], the “Renal residual amount (tumor-bearing mice) % of dose/tissue” value is 5.77 % of dose/tissue and the “Renal residual amount (tumor-bearing mice) Proportion of decrease” value worked out at 77.68%.

B5: [Gd/4arm-DOTA-CH2-(1,4-Ph)-NH—C(═S)-Gly-Phe-Lys*-Z2(#N)]p-Fab^2 (conjugate)
heavy: EVQLVESGGGLVQPGGSLRLSCAASGFNIRDTYMHWVRQAPGKGLEWVARIDPANGNSRYVPKFQGRFTISADTSRNTAYLQMNSLRAEDTAVYYCAPFGYYVSDYAMAYWGQGTLVTVSSASTKGPSVFPLAPSSKSTSGGTAALGCLVKDYFPEPVTVSWNSGALTSGVHTFPAVLQSSGLYSLSSVVTVPSSSLGTQTYICNVNHKPSNTKVDKKVEPKSCD
light: DIQLTQSPSSLSASVGDRVTITCRAGESVDIFGVGFLHWYQQKPGKAPKLLIYRASNLESGIPSRFSGSGSRTDFTLTISSLQPEDFATYYCQQTNEDPYTFGQGTKVEIKRTVAAPSVFIFPPSDEQLKSGTASVVCLLNNFYPREAKVQWKVDNALQSGNSQESVTEQDSKDSTYSLSSTLTLSKADYEKHKVYACEVTHQGLSSPVTKSFNRGEC
B5: in data set [1], the “Proportion of decrease (amount of Gd contained in the kidneys)” value was 68.0% and the “% of dose/tissue (amount of Gd contained per kidney)” value was 9.9 % of dose/tissue.

B6: [Gd/DOTA]p-Fab^2 (conjugate)
heavy: EVQLVESGGGLVQPGGSLRLSCAASGFNIRDTYMHWVRQAPGKGLEWVARIDPANGNSRYVPKFQGRFTISADTSRNTAYLQMNSLRAEDTAVYYCAPFGYYVSDYAMAYWGQGTLVTVSSASTKGPSVFPLAPSSKSTSGGTAALGCLVKDYFPEPVTVSWNSGALTSGVHTFPAVLQSSGLYSLSSVVTVPSSSLGTQTYICNVNHKPSNTKVDKKVEPKSCD
light: DIQLTQSPSSLSASVGDRVTITCRAGESVDIFGVGFLHWYQQKPGKAPKLLIYRASNLESGIPSRFSGSGSRTDFTLTISSLQPEDFATYYCQQTNEDPYTFGQGTKVEIKRTVAAPSVFIFPPSDEQLKSGTASVVCLLNNFYPREAKVQWKVDNALQSGNSQESVTEQDSKDSTYSLSSTLTLSKADYEKHKVYACEVTHQGLSSPVTKSFNRGEC
Turning to B6, in data set [3], the “Renal residual amount (normal mice) % of dose/tissue” value is reported as 31.33 % of dose/tissue. For the same molecule, in data set [2], the “Renal residual amount (normal mice) Mean” value is reported as 29.33 % of dose/tissue. Also, in data set [4], the “Renal residual amount (tumor-bearing mice) Mean” value is 25.83 % of dose/tissue.

B7: [Gd/DOTA-NH—CH2-(1,4-Ph)-NH—C(═O)-Met-Ile-NH—(CH2)2-(A-4 and/or A-5)]p-Fab^2 (conjugate)
heavy: EVQLVESGGGLVQPGGSLRLSCAASGFNIRDTYMHWVRQAPGKGLEWVARIDPANGNSRYVPKFQGRFTISADTSRNTAYLQMNSLRAEDTAVYYCAPFGYYVSDYAMAYWGQGTLVTVSSASTKGPSVFPLAPSSKSTSGGTAALGCLVKDYFPEPVTVSWNSGALTSGVHTFPAVLQSSGLYSLSSVVTVPSSSLGTQTYICNVNHKPSNTKVDKKVEPKSCD
light: DIQLTQSPSSLSASVGDRVTITCRAGESVDIFGVGFLHWYQQKPGKAPKLLIYRASNLESGIPSRFSGSGSRTDFTLTISSLQPEDFATYYCQQTNEDPYTFGQGTKVEIKRTVAAPSVFIFPPSDEQLKSGTASVVCLLNNFYPREAKVQWKVDNALQSGNSQESVTEQDSKDSTYSLSSTLTLSKADYEKHKVYACEVTHQGLSSPVTKSFNRGEC
On to B7, for which, in data set [3], the “Renal residual amount (normal mice) % of dose/tissue” value is 2.43 % of dose/tissue and the “Renal residual amount (normal mice) Proportion of decrease” value turned out to be 92.15%.
